Patent publication US20070265201A1, “INHIBITORS OF IN[…] TRA[…] FROM HCMV PROTEIN IE2” (priority 2005, published 2007)

Tested on: C/EBPβ
Assay: Specificity control: C/EBPβ expression by western blot of transfected HeLa-S3 lysates
Type: cell-based
Details: HeLa-S3 cell lysates, FIG. 4C
Procedure: FIGS. 4A-4D. […] FIG. 4D is another specificity control showing that a control GFP expression vector was not affected by either IE2 291-343 or IE2 291-364. HeLa-S3 cells were transfected with both a GFP expression vector and cotransfected with either E2 291-343 or IE 291-364 expression vectors and GFP expression analyzed 24 hours later by a fluorescence activated cell sorter.
Because the IE2 291-364 region was previously mapped as one of three TBP binding sites on IE2, it was possible that the inhibitory function was due to interaction with TBP. To exclude this possibility, the expression of two other genes that contain TATA boxes in their promoters were investigated. First, an observed the expression of C/EBPβ from the expression vector by western blot (FIG. 4C) was conducted. […] Second, His-tagged inhibitors were cotransfected with ev GFP and the geometric mean brightness of transfected cells measured by flow cytometry (FIG. 4D). […] It is believed that the basis for the interaction is localized to residues 315-328 of the IE2 molecule because a variant of IE2 291-364 missing the 315-328 region (delA) lacks binding to Spi-1 ETS domain in a GST fusion pull-down assay (FIG. 5).

B1: GFP 291-364 (protein)
chain: SSHHGRGGFGGAASSSLLSCGHQSSGGASTGPRKKKSKRISELDNEKVRNIMKDKNTPFCTPNVQTRRGRVKID
modifications: left off: large carriers
effect on expression of C/EBPβ protein (western blot): no reduction
